These results are taken from patent US20190382488A1 (IMAGINAB, published 2019).

Experiment [1] has as its target T1, recombinant human CD8 (rhCD8) (human, UniProt P01732 22-182).
T1 construct: Soluble purified recombinant protein; also called purified recombinant human CD8 protein; soluble CD8
As to the kind of experiment: ELISA on plate-coated rhCD8, transfection supernatant, HRP goat anti-human IgG (Fc-specific), TMB, absorbance 405 nm. As for the experimental part: 96 well plates were coated with rhCD8 antigen and incubated with supernatants obtained from the transient transfection. Binding was detected with HRP-conjugated goat anti-human (Fc-specific) IgG and TMB substrate. The absorbance measured at 405 nm. Dilutions were done in triplicate. Data is shown as mean of relative absorbance.
For orientation: An ELISA detects its analyte on a solid surface through an enzyme-linked reagent.

In experiment [2] the target is T1, recombinant human CD8 (rhCD8). As to the kind of experiment: SPR (BIAcore), minibody captured via anti-human IgG Fc, hCD8 analyte at 50 nM. From the text: (§1) Surface plasma resonance (SPR) was used to determine the binding affinity for all the IAb_Mb_CD8 variants to recombinant human CD8 (Table 8.0). The minibody protein in the supernatant was captured on to the BIAcore chip using an anti-human IgG (Fc-specific) antibody. The amount of minibody captured on the chip was normalized to enable a direct comparison of binding affinity between the variants as a kinetic “scouting” experiment to rank affinities. The rhCD8 protein was passed over the captured minibody protein to measure binding.
(§2) Table 8.0 summarizes the measured association (ka), dissociation (kd), and kD constants for the IAb_Mb_CD8 variants binding to recombinant hCD8. The variants were captured on a BIAcore chip using anti-human Fc-specific IgG antibody.

Experiment [3] addresses T2, cell-surface human CD8 (human, UniProt P01732 22-235).
T2 construct: the cell is named under assay; also called cellular human CD8; CD8 on PC3-CD8 cells
Kind of experiment: flow cytometry, primary human CD8+ T cells. As for the experimental part:
(§3) Flow cytometry analysis of minibodies binding to cell-surface human CD8 on primary human CD8+ T cells was performed. Cells were stained with respective concentrations of minibody, washed, and then stained with a secondary anti-human IgG (Fc-specific) APC-conjugated antibody. Analysis was performed with 10,000 events/point in triplicate for each concentration. The results are shown in graph format in FIG. 29B. The graph presents the normalized mean fluorescence intensity (MFI) vs. the log of the concentration (nM). Error bars represent the standard error. The data indicates an EC₅₀ of 0.1 nM and 0.26 nM.

The target of experiment [4] is T2, cell-surface human CD8. Kind of experiment: flow cytometry on HPB-ALL cells, anti-human IgG (Fc-specific)-APC. On the procedure:
(§4) Flow cytometry analysis of minibodies binding to cell-surface human CD8 on HPB-ALL cells was performed. Cells were stained with respective concentrations of minibody, washed, and then stained with a secondary anti-human IgG (Fc-specific) APC-conjugated antibody. Analysis was performed with 10,000 events/point in triplicate for each concentration. The results are shown in graph format in FIG. 29A. The graph presents the normalized mean fluorescence intensity (MFI) vs. the log of the concentration (nM). Error bars represent the standard error. The data indicates an EC₅₀ of 0.15 nM and 0.19 nM.
(In general: In flow cytometry, cells or beads pass a laser one at a time.)

The target of experiment [5] is T2, cell-surface human CD8. As to the kind of experiment: flow cytometry on primary human CD8+ T cells, anti-human IgG (Fc-specific)-APC. As for the experimental part: as §3
Experiment [6] addresses T2, cell-surface human CD8. As to the kind of experiment: flow cytometry, HPB-ALL cells. As for the experimental part:
as §4
as §4, with “analysis of IgG2 minibodies binding” for “analysis of minibodies binding”, “in FIG. 29E. The graph” for “in FIG. 29A. The graph”, “EC₅₀ of 0.1 nM, 0.13 nM, and 0.08” for “EC₅₀ of 0.15 nM and 0.19”, “nM, and 0.08 nM.” for “nM and 0.19 nM.”

Experiment [7] has as its target T1, recombinant human CD8 (rhCD8). Kind of experiment: SPR (summary table); Table 9 summary.
The target is the same in experiment [8]. As to the kind of experiment: SPR (summary table).
Text: as §1, §2

Experiment [9] shares this target. As to the kind of experiment: SPR (BIAcore), antibody as captured ligand, hCD8 analyte at 50 nM. Background: In SPR one partner is held on a chip, and binding of the other changes the refractive index at the surface.
Experiment [10] deals with T2, cell-surface human CD8. Kind of experiment: flow cytometry, HPB-ALL cells. On the procedure:
(§5) Flow cytometry analysis of the OKT8 mAbconstruct binding to cell-surface human CD8 on HPB-ALL cells was performed. Cells were stained with respective concentrations of antibody, washed, and then stained with a secondary anti-mouse IgG (Fc-specific) APC-conjugated antibody. Analysis was performed with 10,000 events/point in triplicate for each concentration. The results are shown in graph format in FIG. 28. The graph presents the mean fluorescence intensity (MFI) vs. the log of the concentration (nM). Error bars represent the standard error. The data indicates an EC₅₀ of 0.22 nM.
This is another data set of the same source.

The target in experiment [11] is T2, cell-surface human CD8. As to the kind of experiment: flow cytometry on HPB-ALL cells, anti-mouse IgG (Fc-specific)-APC. As for the experimental part: as §5
In experiment [12] the target is T2, cell-surface human CD8. As to the kind of experiment: flow cytometry, HPB-ALL cells; Table 9 summary, HPB-ALL cells. As for the experimental part:
as §5

Experiment [13] addresses T2, cell-surface human CD8. Kind of experiment: flow cytometry on HPB-ALL cells, anti-human IgG (Fc-specific)-APC. The source holds these as a separate data set.
The target in experiment [14] is T2, cell-surface human CD8. As to the kind of experiment: flow cytometry, PC3 cells overexpressing CD8.
The target in experiment [15] is T2, cell-surface human CD8. As to the kind of experiment: flow cytometry on HPB-ALL cells, anti-human IgG (Fc-specific)-APC. As for the experimental part:
as §4, with “analysis of IgG2 minibodies binding” for “analysis of minibodies binding”, “in FIG. 29E. The graph” for “in FIG. 29A. The graph”, “EC₅₀ of 0.1 nM, 0.13 nM, and 0.08” for “EC₅₀ of 0.15 nM and 0.19”, “nM, and 0.08 nM.” for “nM and 0.19 nM.”
The source holds these as a separate data set.

The target of experiment [16] is T2, cell-surface human CD8. As to the kind of experiment: flow cytometry on PC3 cells overexpressing CD8, anti-human IgG (Fc-specific)-APC. On the procedure: Flow cytometry analysis of minibody (+/−lysine conjugation to Desferoxamine) binding to PC3 cells overexpressing CD8 was performed. Cells were stained with respective concentrations of minibody, washed, and then stained with a secondary anti-human IgG (Fc-specific) APC-conjugated antibody. Analysis was performed with 10,000 events/point in triplicate for each concentration. The results are shown in graph format in FIG. 29D. The graph presents the mean fluorescence intensity (MFI) vs. the log of the concentration (nM). Error bars represent the standard error. The data indicates an EC₅₀ of 0.64 nM and 0.83 nM.

T1 sequence (P01732 22-182 limits assumed): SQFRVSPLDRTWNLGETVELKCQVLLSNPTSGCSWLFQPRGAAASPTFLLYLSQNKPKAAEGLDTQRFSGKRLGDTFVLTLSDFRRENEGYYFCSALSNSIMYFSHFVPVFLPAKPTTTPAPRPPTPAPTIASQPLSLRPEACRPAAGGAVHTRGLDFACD
T2 sequence (P01732 22-235 limits assumed): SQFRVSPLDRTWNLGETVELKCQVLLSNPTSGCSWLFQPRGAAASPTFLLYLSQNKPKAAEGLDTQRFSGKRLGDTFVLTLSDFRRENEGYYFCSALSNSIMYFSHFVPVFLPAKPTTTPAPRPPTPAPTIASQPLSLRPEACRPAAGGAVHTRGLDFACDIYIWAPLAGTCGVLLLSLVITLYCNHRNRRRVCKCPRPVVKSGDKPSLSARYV

B1: IAb_Mb1c_CD8 (other)
chain: DVQITQSPSSLSASVGDRVTITCRTSRSISQYLAWYQQKPGKVPKLLIYSGSTLQSGVPSRFSGSGSGTDFTLTISSLQPEDVATYYCQQHNENPLTFGGGTKVEIKGSTSGGGSGGGSGGGGSSQVQLVQSGAEVKKPGATVKISCKVSGFNIKDTYIHFVQQAPGKGLEWIGRIDPANDNTLYASKFQGKATITADTSTDTAYMELSSLRSGDTAVYYCGRGYGYYVFDHWGQGTLVTVSSEPKSCDKTHTCPPCGGGSSGGGSGGQPREPQVYTLPPSRDELTKNQVSLTCLVKGFYPSDIAVEWESNGQPENNYKTTPPVLDSDGSFFLYSKLTVDKSRWQQGNVFSCSVMHEALHNHYTQKSLSLSPGK
notes: also called variant 1c
As to B1, in [1], the concentration giving a half-maximal response (EC50 (read off the curve)) – broadly, the concentration needed to bring the measured effect to its halfway point – was roughly 0.02 µg/mL. For the same molecule, in experiment [2], the Ka was found to be 4e+08 M⁻¹; the Kd (usually the concentration at which binding is half-saturated) worked out at 2.5 nM; the koff (commonly the first-order rate constant of dissociation) worked out at 0.0018 s⁻¹; the kon (as a rule, a measure of how fast the partners come together) was found to be 700000 M⁻¹ s⁻¹.

B2: IAb_Mb2b_CD8 (other)
chain: EVQLVESGGGLVQPGGSLRLSCAASGFNIKDTYIHFVRQAPGKGLEWIGRIDPANDNTLYASKFQGKATISADTSKNTAYLQMNSLRAEDTAVYYCGRGYGYYVFDHWGQGTLVTVSSGSTSGGGSGGGSGGGGSSDVQITQSPSSLSASVGDRVTITCRTSRSISQYLAWYQQKPGKVPKLLIYSGSTLQSGVPSRFSGSGSGTDFTLTISSLQPEDVATYYCQQHNENPLTFGGGTKVEIKEPKSCDKTHTCPPCGGGSSGGGSGGQPREPQVYTLPPSRDELTKNQVSLTCLVKGFYPSDIAVEWESNGQPENNYKTTPPVLDSDGSFFLYSKLTVDKSRWQQGNVFSCSVMHEALHNHYTQKSLSLSPGK
notes: also called IAb M2b CD8
Consider B2, for which the EC50 (as a rule, the concentration giving half of the maximal effect) in experiment [3] was 0.26 nM; in experiment [4], 0.19 nM; in [5], 0.26 nM; in experiment [6], 0.19 nM. Further, the Ka in [2] worked out at 2.6e+08 M⁻¹. Moreover, the figures for the Kd in [2] and in [7] were 3.9 nM and 3.6 nM, respectively. In addition, the koff in [2] turned out to be 0.0021 s⁻¹. Moreover, the kon in experiment [2] was found to be 540000 M⁻¹ s⁻¹. The concentration for a half-maximal effect (EC50 (read off the curve)) in [5] was roughly 0.3 nM.

B3: OKT8 mAb (antibody, V domains shown)
VH: EVQLQQSGAELVKPGASVKLSCTASGFNIKDTYIHFVRQRPEQGLEWIGRIDPANDNTLYASKFQGKATITADTSSNTAYMHLCSLTSGDTAVYYCGRGYGYYVFDHWGQGTTLTVSS
VL: DVQINQSPSFLAASPGETITINCRTSRSISQYLAWYQEKPGKTNKLLIYSGSTLQSGIPSRFSGSGSGTDFTLTISGLEPEDFAMYYCQQHNENPLTFGAGTKLELK
notes: Parental murine monoclonal antibody (detected with anti-mouse IgG Fc); also called parental OKT8 antibody; parental OKT8
In the case of B3, the Kd in experiment [8] stood at 1.8 nM. In [9], the Ka was found to be 5.5e+08 M⁻¹, the Kd amounted to 1.8 nM, the koff was determined as 0.001 s⁻¹ and the kon was determined as 560000 M⁻¹ s⁻¹. Besides, in experiment [10], the half-maximal effective concentration (EC50) is 0.22 nM. In [11], a half-maximal effect (EC50) was put at 0.33 nM and the “EC50 (read off the curve)” value is roughly 0.3 nM. The molecule further had an EC50 in experiment [12] of 0.33 nM.

B4: IAb_Mb1b_CD8 (other)
chain: DVQITQSPSSLSASVGDRVTITCRTSRSISQYLAWYQQKPGKVPKLLIYSGSTLQSGVPSRFSGSGSGTDFTLTISSLQPEDVATYYCQQHNENPLTFGGGTKVEIKGSTSGGGSGGGSGGGGSSEVQLVESGGGLVQPGGSLRLSCAASGFNIKDTYIHFVRQAPGKGLEWIGRIDPANDNTLYASKFQGKATISADTSKNTAYLQMNSLRAEDTAVYYCGRGYGYYVFDHWGQGTLVTVSSEPKSCDKTHTCPPCGGGSSGGGSGGQPREPQVYTLPPSRDELTKNQVSLTCLVKGFYPSDIAVEWESNGQPENNYKTTPPVLDSDGSFFLYSKLTVDKSRWQQGNVFSCSVMHEALHNHYTQKSLSLSPGK
notes: also called IAb M1b CD8
For B4, the Kd in experiment [8] and in experiment [2] was 1.9 nM each time. Further, the EC50 came to 0.13 nM in experiment [13]; 0.6 nM in experiment [14]; 0.1 nM in [15]; 0.1 nM in experiment [3]; 0.15 nM in experiment [4]; 0.64 nM in [16]. Moreover, the EC50 in experiment [5] and in [6] was 0.1 nM each time. For the same molecule, the Ka in [2] came to 5.4e+08 M⁻¹. The off-rate (koff) in experiment [2] turned out to be 0.0012 s⁻¹. The kon in [2] was determined as 640000 M⁻¹ s⁻¹. Moreover, the “EC50 (read off the curve)” value in experiment [16] is roughly 0.7 nM; in [5] it was roughly 0.1 nM.

B5: IAb_M1b_CD8-Df (other)
chain: B4 chain
modifications: Desferoxamine (Df) conjugated to lysine residues
notes: also called Df-labeled minibody
For the molecule B5, the values for the EC50 in experiment [13] and in experiment [16] were 0.12 nM and 0.83 nM, respectively. Besides, in experiment [16], the concentration giving a half-maximal response (EC50 (read off the curve)) was roughly 0.9 nM.
